Legend:
[1] = molecular target: the molecule itself; assay: BS3 chemical cross-linking of neutrophil extracts, immunoblot
Procedure: In these experiments, 96-well plates were coated with 250 ng of BSA coupled […] asialo-COO⁻ lung glycopeptides for 4 h at 37° C. and blocked with 3% BSA in PBS overnight. Human neutrophil extracts were sequentially incubated in each of four wells for 30 min/well at 37° C. in leukocyte activation buffer (described above), in presence or absence of 200 μM […] asialo-COO⁻ glycopeptides or asialo-CONHMe-glycopeptides. After incubation, the supernatants from the incubation wells were collected and protein depletion was analyzed by immunoblotting using the respective antibodies. For detection of S100A8/A9 complexes, the proteins in the supernatants were stabilized by chemical cross-linking using bis-sulfosuccinimidyl suberate (BS³) as known in the art (See, Staros, Biochem., 21:3590 [1982]). Briefly, the cross linker was added from a fresh 2 mM stock solution to neutrophil lysates obtained as described above, to a final concentration of 200 μM, and the mixture was incubated at room temperature for 30 min. Reactions were quenched by the addition of 1 M Tris to a final concentration of 10 mM and samples were stored at −80° C., until they were assayed. Cross-linked samples were incubated with 2-mercaptoethanol prior to separation on SDS-PAGE. Since crude lysates were used in the cross-linking, it is conceivable that non-specific cross-linking could occur. […]

[2] = molecular target: T1, human S100A9 (human, UniProt P06702 2-114, limits assumed); assay: co-purification from human neutrophil cytosol
T1 construct: also called MRP14; MRP9
T1 sequence (looked up): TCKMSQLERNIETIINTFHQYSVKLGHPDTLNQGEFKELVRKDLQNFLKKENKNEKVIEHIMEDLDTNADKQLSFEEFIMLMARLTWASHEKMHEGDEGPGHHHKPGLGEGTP
Text: Chem., 266:7706 [1991]). […] The proteins remained as heteromeric complexes through purification, were even retained on YM10 and YM30 ultrafiltration membranes, and could not be separated into individual proteins without denaturation. The molecular masses of the purified proteins as determined by SDS gels was 11 kDa and 14 kDa for S100A8 and S100A9 respectively (data not shown). […] Binding to BSA coupled asialo-COO⁻ bovine lung glycopeptides immobilized on microtiter plates was inhibited in presence of 0.3 M asialo-COO⁻ glycopeptides, but much less effectively by the asialo-CONHMe-glycopeptides. In FIG. 19, each point is the mean of two determinations.
All steps were carried out at 4° C., unless otherwise indicated. […] Briefly, 100 ml peripheral blood was obtained from healthy volunteers and neutrophils obtained by Ficoll-Hypaque centrifugation as indicated above. The cells were lysed in PBS containing 1 mM DTT, 1% NP40 and protease inhibitors, and subjected to ultracentrifugation at 160,000×g for 30 min. The protein in the supernatant was adjusted to 2 mg/ml with the above buffer, and the solution stirred on ice. Solid ammonium sulfate was slowly added to a final concentration of 75% (w/v) and stirred for 1 h. […] S100A8/A9 proteins eluted at 35-50% acetonitrile, and were >90% pure as determined by SDS gels.

[3] = molecular target: T2, RAGE from bovine lung (native, purified/immunoprecipitated) (bovine, UniProt Q28173 23-416, carries PNGaseF-sensitive carboxylated N-linked oligosaccharides); assay: saturation binding of 125I amphoterin to immobilized RAGE in presence of soluble COO- glycopeptides
T2 construct: Released from mAbGB3.1 beads after immunoprecipitation of bovine lung homogenate; also called bovine lung RAGE; bovine RAGE
T2 sequence (looked up): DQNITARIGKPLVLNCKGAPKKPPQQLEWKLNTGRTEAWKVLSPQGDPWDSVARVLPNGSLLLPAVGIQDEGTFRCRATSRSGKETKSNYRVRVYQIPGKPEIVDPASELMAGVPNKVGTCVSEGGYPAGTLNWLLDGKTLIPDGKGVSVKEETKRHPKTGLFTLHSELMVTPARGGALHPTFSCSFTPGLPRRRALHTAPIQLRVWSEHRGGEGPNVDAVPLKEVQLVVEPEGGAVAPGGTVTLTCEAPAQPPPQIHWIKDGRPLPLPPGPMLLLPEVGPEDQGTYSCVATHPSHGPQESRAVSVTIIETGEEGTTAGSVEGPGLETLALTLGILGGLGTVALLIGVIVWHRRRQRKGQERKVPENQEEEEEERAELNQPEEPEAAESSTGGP
Procedure: (§1) Amphoterin was radioiodinated using Na ¹²⁵I and Iodo-Beads Iodinating Reagent (Pierce) to a specific activity of 5×10³ cpm/ng protein. Saturation binding experiments were done by a slight modification of the method of Hori et al (Hori at al., J. Biol. Chem., 270:25752-61 [1995]). Briefly, purified RAGE was immobilized on microliter wells and the wells blocked with 3% BSA. Wells were incubated at 4° C. overnight with increasing concentrations of ¹²⁵I amphoterin in HBSS containing 0.1% BSA in the presence or absence of desialylated carboxylate-enriched (COO⁻) or CONHMe bovine lung glycopeptides, or 20 μg/ml mAbGB3.1 or an unrelated anti-carbohydrate monoclonal antibody, or 100 fold excess of unlabeled amphoterin. Binding was also tested on RAGE deglycosylated by PNGase F under non-denaturing conditions. Wells were washed, bound amphoterin was eluted with 2 M NaCl, and radioactivity was measured using a gamma counter. Non-linear regression analysis was done using the GraphPad Prism program.
(§2) Specific binding is defined as the total binding minus non-specific binding measured in presence of 100-fold excess of unlabeled amphoterin. The […] binding was 3-4% of total binding. Then, the possibility that amphoterin binding is dependent upon the N-glycans on RAGE was examined.

[4] = molecular target: T3, RAGE deglycosylated by PNGase F (bovine, UniProt Q28173 23-416, N-linked oligosaccharides removed by PNGase F (mass decreased by about 4500 daltons)); assay: saturation binding of 125I amphoterin to immobilized RAGE deglycosylated by PNGase F
T3 construct: also called deglycosylated RAGE; PNGase F digested RAGE
T3 sequence (looked up): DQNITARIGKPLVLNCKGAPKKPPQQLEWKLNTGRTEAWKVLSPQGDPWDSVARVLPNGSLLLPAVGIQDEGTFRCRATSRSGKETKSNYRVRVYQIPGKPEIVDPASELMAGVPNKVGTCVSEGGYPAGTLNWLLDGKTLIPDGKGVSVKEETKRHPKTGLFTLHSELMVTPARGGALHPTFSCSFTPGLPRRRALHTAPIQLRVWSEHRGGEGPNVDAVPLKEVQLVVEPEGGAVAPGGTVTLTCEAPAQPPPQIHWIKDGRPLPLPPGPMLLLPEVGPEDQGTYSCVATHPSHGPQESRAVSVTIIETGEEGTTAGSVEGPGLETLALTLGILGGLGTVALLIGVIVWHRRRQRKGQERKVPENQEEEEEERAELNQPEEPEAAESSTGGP
Procedure: as §1
The binding of a single concentration of labeled ligand was also tested in presence of various concentrations of COO⁻ or neutral glycopeptides. […] Binding was also found to be reduced in presence of mAbGB3.1, while a non-relevant antibody is ineffective (FIG. 24, Panel C).

[5] = molecular target: T2, RAGE from bovine lung (native, …); assay: saturation binding of 125I amphoterin to RAGE immobilized on microtiter wells, non-linear regression
Procedure: as §1, §2

B1: human S100A8 (other, UniProt P05109 1-93, looked up)
chain: MLTELEKALNSIIDVYHKYSLIKGNFHAVYRDDLKKLLETECPQYIRKKGADVWFKELDINTDGAVNFQEFLILVIKMGVAAHKKSHEESHKE
notes: also called MRP8; CP-10
Q: Does B1 bind [1]?
A: binds

Q: Does B1 bind [2]?
A: binds

B2: amphoterin (baculovirus expressed rat amphoterin) (ligand, UniProt P63159 2-215, looked up)
chain: GKGDPKKPRGKMSSYAFFVQTCREEHKKKHPDASVNFSEFSKKCSERWKTMSAKEKGKFEDMAKADKARYEREMKTYIPPKGETKKKFKDPNAPKRPPSAFFLFCSEYRPKIKGEHPGLSIGDVAKKLGEMWNNTAADDKQPYEKKAAKLKEKYEKDIAAYRAKGKPDAAKKGVVKAEKSKKKKEEEDDEEDEEDEEEEEEEEDEDEEEDDDDE
modifications: radioiodinated (125I) in the binding assays
notes: the only purified amphoterin in the materials is the baculovirus expressed rat protein; also called recombinant amphoterin
Q: What does the source list for B2?
A: Kd [3]: ~12.6 nM; Kd [4]: ~18.2 nM; Kd [5]: ~10.7 nM

Reference: patent US20100249383A1, “Novel Ligand Involved In The Transmigration Of Leukocytes Across the Endothelium and Uses Therefor” (The Regents of The University of California and The Burnham …, priority 2001, published 2010)
